Test results as given in patent US20180362643A1 (Amgen, published 2018).
Ends that are not written are not given here.

T1: PACAP38 peptide fragment 11-27 (human)
T1 construct: also called peptide No. 8
T1 peptide: SRYRKQMAVKKYLAAVL

T2: PACAP38 peptide fragment 4-27 (human)
T2 construct: also called peptide No. 9
T2 peptide: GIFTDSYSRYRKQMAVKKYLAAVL

T3: PACAP38 peptide fragment 6-35 (human)
T3 construct: also called peptide No. 4
T3 peptide: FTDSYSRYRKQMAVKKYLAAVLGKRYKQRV

T4: full-length human PACAP38 (human, not fully specified)
T4 peptide: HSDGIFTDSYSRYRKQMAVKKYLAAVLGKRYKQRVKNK

T5: 30-37
T5 construct: also called PACAP38 peptide fragment 30-37; peptide No. 19
T5 peptide: RYKQRVKN

T6: PACAP38 peptide fragment 27-38 (human, ends and bridges not checked)
T6 construct: also called peptide No. 6
T6 peptide: LGKRYKQRVKNK

B1: mAb6 (antibody, V domains shown)
VH: QLEESGGGLVQPGASLTLTCTTSGFSLSDNYLCWVRQAPGRGLEWVACIGIVLRSTGATYYASWAEGRFTISKTSPTTVTLEMTSLTAADTATYFCALDLGYGGPLWGPGTLVTVSS
VL: AQVLTQTPASVSAAVGGTVTINCQASQSVYNNKNLAWYQQKPGQPPKLLIYFSSTLASGVPSRFRGSGSGTQFTLTISGVQCGDAATYYCLGEFGSIWAFGGGTEVVVKG
notes: Rabbit monoclonal antibody (SLAM), recombinant; also called monoclonal anti-PACAP antibody 6; 6 (c55)
B2: mAb2 (antibody, V domains shown)
VH: QSLEESGGGLVQPEGSLTLTCTASGFSFNSSSYMCWVRQAPGKGLEWIGCIFTGSSGNTYYATWAQGRFTISKTSTTVTLEMTSLTAADTATYFCARDRAYFLVGYFYATYYFDLWGPGTLVTVSS
VL: DVVMTQTPSPVSAQVGGTVTINCQASESIDSDLSWYQQKPGQPPKLLIYRTFTLESGVPSRFKGSGSGTDYTLTISDLECADAAIYYCQCTDGSSISGSYGWDAFGGGTEVVVKG
notes: Rabbit monoclonal antibody (SLAM), recombinant; also called monoclonal anti-PACAP antibody 2; 2 (c81)

Columns and labels:
[1] = target: T1, PACAP38 peptide fragment 11-27; assay: SPR (Biacore 3000), solution competition: antibody pre-incubated 2 h with the peptide at 1:200 molar ratio (Ab:peptide), then injected over immobilised full-length PACAP38; readout % inhibition of antibody binding (filing counts >50 % as reactive)
[2] = target: T2, PACAP38 peptide fragment 4-27; assay: as above
[3] = target: T3, PACAP38 peptide fragment 6-35; assay: as above
[4] = target: T4, full-length human PACAP38; assay: cell-based or functional assay
[5] = target: T5, 30-37; assay: SPR (Biacore 3000), solution competition: antibody pre-incubated 2 h with the peptide at 1:200 molar ratio (Ab:peptide), then injected over immobilised full-length PACAP38; readout % inhibition of antibody binding (filing counts >50 % as reactive)
[6] = target: T6, PACAP38 peptide fragment 27-38; assay: as above

| Binder | binding result [1] | binding result [2] | binding result [3] | IC50, inhibition of PACAP38-induced activation of the PAC1 receptor (cAMP assay, CRL-2266 cells) [4] [nM] | potency relative to PAC1 Ab, inhibition of PACAP38-induced PAC1 receptor activation (cAMP assay) [4] [fold] | binding result [5] | binding result [6] |
| --- | --- | --- | --- | --- | --- | --- | --- |
| B1 | binds | binds | binds |  |  |  |  |
| B2 |  |  |  | < 1 | ~10 | binds | binds |
